# B1: TatC with C-terminal hexahistidine tag, wild type (TatABC system) [E. coli] / TatA [E. coli] (parent)
# chain 1: MGGISIWQLLIIAVIVVLLFGTKKLGSIGSDLGASIKGFKKAMSDDEPKQDKTSQDADFTAKTIADKQADTNQEQAKTEDAKRHDKEQV
# chain 2: MSVEDTQPLITHLIELRKRLLNCIIAVIVIFLCLVYFANDIYHLVSAPLIKQLPQGSTMIATDVASPFFTPIKLTFMVSLILSAPVILYQVWAFIAPALYKHERRLVVPLLVSSSLLFYIGMAFAYFVVFPLAFGFLANTAPEGVQVSTDIASYLSFVMALFMAFGVSFEVPVAIVLLCWMGITSPEDLRKKRPYVLVGAFVVGMLLTPPDVFSQTLLAIPMYCLFEIGVFFSRFYVGKGRNREEENDAEAESEKTEE
# B2: TatC with C-terminal hexahistidine tag, wild type (TatABC system) [E. coli] / TatB [E. coli] (parent)
# chain 1: MFDIGFSELLLVFIIGLVVLGPQRLPVAVKTVAGWIRALRSLATTVQNELTQELKLQEFQDSLKKVEKASLTNLTPELKASMDELRQAAESMKRSYVANDPEKASDEAHTIHNPVVKDNEAAHEGVTPAAAQTQASSPEQKPETTPEPVVKPAADAEPKTAAPSPSSSDKP
# chain 2: B1 chain 2
# Variants of: B1
# Test: affinity purification (H6-tagged TatC) with SDS-PAGE/Western-blot band quantification
# Details: eight replicates, read off a plot
row,Variant,response [signal ratio]
1,chain 2 L189A,0.67
2,chain 2 Y154A,1.6
3,chain 2 I50Y,1.3

# Variants of: B2
# Test: as above
# Details: eight replicates, read off a plot
row,Variant,response [signal ratio]
1,chain 2 Y154A,0.81
2,chain 2 I50Y,0.86
3,chain 2 L189A,0.97

# — paper PMC11178869
